The target of assay [1] is human growth hormone secretagogue receptor (human) (UniProt Q92847). Description: (125I)ghrelin displacement, hGHS-R CHO-K1 membranes.
Assay [2] addresses T1, human growth hormone secretagogue receptor (human, UniProt Q92847 1-366).
T1 construct: whole, on cells; also called hGHS-R; ghrelin receptor
Described as above.
Method: Membranes for radioligand binding studies can be and were prepared by homogenization of the foregoing CHO-KL cells expressing the human recombinant GHS receptor. The cells were homogenized in 20 ml of ice-cold 50 mM Tris-HCl using a Brinkman Polytron® (Westbury, N.Y.; setting 6, 15 sec). The homogenates were washed twice by centrifugation (39,000 g/10 min) and the final pellets were resuspended in 50 mM Tris-HCl containing 2.5 mM MgCh and 0.1% bovine serum albumin (BSA). […] The filters were then washed three times with 5-ml aliquots of ice-cold 50 mM Tris-HCl and 0.1% BSA, and the bound radioactivity trapped on the filters was counted by gamma spectrometry (Wallac LKB, Gaithersburg, Md.).

human growth hormone secretagogue receptor (human), sequence (Q92847 whole entry): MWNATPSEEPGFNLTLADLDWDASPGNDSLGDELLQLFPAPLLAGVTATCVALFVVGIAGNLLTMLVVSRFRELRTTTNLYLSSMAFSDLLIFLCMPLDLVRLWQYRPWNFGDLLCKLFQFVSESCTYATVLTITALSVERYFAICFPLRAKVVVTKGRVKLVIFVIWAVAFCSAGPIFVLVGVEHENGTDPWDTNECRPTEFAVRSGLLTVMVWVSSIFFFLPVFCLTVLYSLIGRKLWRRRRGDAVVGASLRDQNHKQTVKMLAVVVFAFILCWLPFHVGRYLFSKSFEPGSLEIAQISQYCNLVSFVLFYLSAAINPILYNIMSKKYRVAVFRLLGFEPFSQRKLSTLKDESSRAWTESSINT
T1 sequence (Q92847 whole entry): as above

As for H-Apc-D-1-Nal-D-Trp-Phe-NH2 (peptide), the Ki in assay [1] came to 0.7 nM. Consider H-Apc-D-1-Nal-D-Trp-Taz-NH2 (peptide), for which the Ki in assay [1] was found to be 1.41 nM. Against the preceding molecule, the Ki is about 2-fold higher. As for “H-Apc-D-Bal-D-2-Nal-Phe-Lys-NH2 (peptide)”, in assay [1], the Ki came to 0.68 nM. The molecule “H-Apc-D-Bal-D-Trp-2-Thi-Apc-NH2 (peptide)” came in with a Ki in assay [1] of 0.51 nM. On to H-Apc-D-Bal-D-Trp-Phe-Apc-NH2 (peptide), for which the Ki in assay [1] was found to be 0.71 nM. The Ki values of the last two molecules are within 1.5-fold of each other.

In assay [1], H-Apc-D-Bal-D-Trp-Taz-Lys-NH2 (peptide) showed an inhibitory constant (Ki) of 0.5 nM. With H-Inp-D-2-Nal-D-Trp(Ψ)-Pim (peptide), in assay [1], the Ki turned out to be 117 nM. With “H-Inp-D-2-Nal-D-Trp-Taz-Lys-NH2 (peptide)”, the Ki in assay [1] was determined as 0.8 nM. Compared with the last molecule, the Ki is about 150-fold lower. For “H-Inp-D-Bal-D-Trp-2-Thi-Apc-NH2 (peptide)”, the inhibition constant (Ki) in assay [1] was determined as 0.4 nM. As for H-Inp-D-Bal-D-Trp-Phe-Lys-NH2 (peptide), in assay [1], the Ki amounted to 0.33 nM. The Ki values of the last two molecules are within 1.5-fold of each other.

On to H-Inp-D-Bal-D-Trp-Taz-Apc-NH2 (peptide), for which the Ki in assay [1] is 0.83 nM. H-Inp-D-Bal-D-Trp-Taz-Lys-NH2 (peptide): the Ki in assay [1] was 0.52 nM.

With H-Inp-D-Bip-D-Trp-Phe-NH2 (peptide), in assay [1], the Ki amounted to 20 nM. Turning to Inp-D-2-Nal-D-Trp-Phe-Lys-NH2 (peptide), the Ki in assay [1] came out at 0.3 nM. In assay [2], GSXFLSPEHQRVQQRKESKKPPAKLQPR (Glu(O-hexyl) 3; C-terminal amide) [(Glu^3(O-hexyl))hGhrelin(1-28)-NH2] gave a Ki of 0.5 nM.

A word on the Ki: it is a dissociation constant, usually derived from enzyme kinetics or from competition with a known ligand. A low value points to higher affinity.

The record behind these values is US20090304724A1 (IPSEN PHARMA S A S, published 2009).
